The text below walks through data of patent WO2009150539A2 (dated 2009).

Test [1] concerns the target T1, AahII toxin of Androctonus australis hector (Androctonus australis hector, UniProt P01484 20-83).
T1 construct: mature; also called Aahll
T1 sequence: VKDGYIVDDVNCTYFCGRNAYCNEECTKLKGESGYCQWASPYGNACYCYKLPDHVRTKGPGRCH
Kind of test: SPR (BIAcore), AahII immobilised on CM5 chip, Nb in mobile phase. A general note: SPR reads the build-up and loss of mass on a sensor chip optically.

The target of test [2] is AahI' toxin of Androctonus australis hector (Androctonus australis hector) (UniProt P01479). Kind of test: cell-based or functional assay.
AahI' toxin of Androctonus australis hector (Androctonus australis hector), sequence (P01479 20-82): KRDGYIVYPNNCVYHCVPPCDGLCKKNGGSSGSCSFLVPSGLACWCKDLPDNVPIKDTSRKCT

B1: NbAahII39 (VHH)
VHH: QVQLVESGGGSVQAGGSLRLSCAASGYTCTKFNMGWYRQAPGKERKMVATIRRDGTTYYADSVKGRFTISQDNAKNTVYLQMTSLKPEDSAMYYCSFRCVTPSLPYWGQGTQVTVSS
notes: also called cluster G
What is called Kd is the equilibrium constant for the complex coming apart. Low values mean tighter binding, high ones weaker binding. Broadly, the koff is the rate constant with which the complex falls apart. A low value points to slow dissociation. One may read the kon as the rate constant with which the complex forms. In test [1], B1 displayed a Kd of 0.16 nM, a koff of 0.00105 s⁻¹ and a kon of 6.41e+06 M⁻¹ s⁻¹.

B2: AahI'A17 (VHH)
VHH: QVQLQESGGGSVQDGGSLTLSCAASSSYVFNNLNMGWFRQAPGKECELVSTLFVNGITNYADSVKGRFTVSRDNAKNTVFLHMTNLSTEDTAVYYCAAPDVCSATRCGPACRGQGTQVTVSS
For the molecule B2, the surviving mice; i.c.v.; 4 LD50 AahI'; ratio 1:2 (survivors of 4 mice) in test [2] is 4.

B3: NbAahII41 (VHH)
VHH: QVQLVESGGGSVQAGGSLRLSCAASGFDFSIYVMSWVRQAPGKGLEWISGIMPSGQTTYADAVKGRFTISRDNAKNTLYLQLNSLKTEDTAIYYCAKGVYTKYVGGARGQGTQVTVSS
notes: also called cluster I
For the molecule B3, in test [1], the Kd is 2.31 nM, the koff came to 0.01 s⁻¹ and the kon was found to be 4.33e+06 M⁻¹ s⁻¹.

B4: AahI'D19 (VHH)
VHH: QVQLQESGGGLVQPGGSLRLSCAVTDFTFSFYWMYWVRQAPGKNLEWISSLHSDGYTYYPDSVKGRFTISRDTAKNMLYLQMNSLKPEDTAVYYCATAIRNMWGQAAPGSAGYWGQGTQVTVSS
B4: the surviving mice; i.c.v.; 4 LD50 AahI'; ratio 1:2 (survivors of 4 mice) in test [2] was determined as 4.

B5: NbAahII08 (VHH)
VHH: DVQLVESGGGSVQAGGSLRLSCAASGDSYSNYYMAWFRQAPGKEREGVAHINRSGRITLYADSVKGRFTMSRDNAKNTVYLQMNSLKPEDTAIYYCAAGVRTHMPPLASYGFDYWGQGTQVTVSS
notes: also called cluster F
In test [1], B5 returned a Kd of 0.12 nM, a koff of 0.00138 s⁻¹ and a kon of 1.19e+07 M⁻¹ s⁻¹.

B6: AahI'B2 (VHH)
VHH: QVQLQESGGGSVQAGGSLRLSCVASEYSYRRNCMAWYRQAPGKEREGVARISTAYDITYYADSANGRFTISQDKAKKTVYLQMNSLKPEDSAMYYCSVSTGSDCYSMSLPRMDYWGKGTQVTVSS
Take B6: the surviving mice; i.c.v.; 4 LD50 AahI'; ratio 1:2 (survivors of 4 mice) in test [2] was 4.

B7: AahI'C14 (VHH)
VHH: QVQLQESGGGSVQAEGSLRLSCTVSGLTSSSNYVGWFRQAPGKEREGVATIGPYTRNTRYADSVNGRFTISLDNAKSTLYLQMNGLKPEDTAIYYCAAGKTTWIRALRSDDYKYWGQGTQVTVSS
On to B7, for which the surviving mice; i.c.v.; 4 LD50 AahI'; ratio 1:2 (survivors of 4 mice) in test [2] is 0.

B8: AahI'A3 (VHH)
VHH: QVQLQESGGGSVQAGGSLRLSCAASGFTFRSPYCMGWFRQAPGKEREAVAAIKTYYAGTVYADSMKGRFTITQDIAKNTVYLQMNSLKPEDTATYYCAATGGPYNGRCPLTSQPFPNWGQGTQVTVSS
On to B8, for which the surviving mice; i.c.v.; 4 LD50 AahI'; ratio 1:2 (survivors of 4 mice) in test [2] amounted to 4.

B9: AahI'B23 (VHH)
VHH: QVQLQESGGGSVQAGGSLRLSCAASGYQQTGYCMGWFRQAPGKEREGVAVIKTFYAGTVYADSVKGRFTISQDIAKNTVYLQMNSLQPEDTAMYYCAITGGPWNGRCPLTSQAFRYWGQGTQVTVSS
B9: the surviving mice; i.c.v.; 4 LD50 AahI'; ratio 1:2 (survivors of 4 mice) in test [2] was 0.

B10: AahI'B1 (VHH)
VHH: QVQLQESGGGSVQAGGSLRLSCTASKYTSAVGWFRQAPGKEREGVASIYGYTGSGSSGSTYYADSGKGRFTISRDSAKNMVYLQMNSLKPEDTAMYYCTAADRPRFRLLVEDDVVYWGQGTQVTVSS
As to B10, in test [2], the surviving mice; i.c.v.; 4 LD50 AahI'; ratio 1:2 (survivors of 4 mice) was 0.

B11: AahI'A2 (VHH)
VHH: QVQLQESGGGSVQAGGSLRLSCAASGFPASSYCMAWFRQAPGKEREGLAAIYNGGRRYYPDSLKGRFTIEDKAENTIYLEMNSLKPEDTATYYCAARSNQCWYATLQQSWYPYWGQGTQVTVSS
Take B11: the surviving mice; i.c.v.; 4 LD50 AahI'; ratio 1:2 (survivors of 4 mice) in test [2] was 0.
